From US20180016337A1 (HELIX BIOPHARMA, published 2018) come the findings set out here.

The experiment has as its target T1, CEACAM6 antigen (carcinoembryonic antigen related cell adhesion molecule 6) (human, UniProt P40199 35-320).
T1 construct: also called CD66c
T1 sequence: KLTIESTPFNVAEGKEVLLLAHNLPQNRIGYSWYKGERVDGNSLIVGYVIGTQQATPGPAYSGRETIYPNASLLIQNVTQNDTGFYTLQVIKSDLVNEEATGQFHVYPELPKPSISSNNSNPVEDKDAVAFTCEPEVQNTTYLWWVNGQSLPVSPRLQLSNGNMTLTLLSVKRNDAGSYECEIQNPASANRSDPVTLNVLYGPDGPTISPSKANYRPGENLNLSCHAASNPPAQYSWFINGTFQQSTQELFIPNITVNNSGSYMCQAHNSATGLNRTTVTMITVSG
Nature of the experiment: SPR, format not stated. (Surface plasmon resonance follows binding to a sensor surface in real time, without labels.)

B1: 2A3 camelid single domain antibody (anti-CEACAM6) (VHH)
VHH: QVKLEESGGGLVQAGGSLRLSCRTSGRTNSVYTMGWFRQAPGKEREFVAQIMWGAGTNTHYADSVKGRFTISRDSAESTVYLQMNSLKPEDTAVYYCAANRGIPIAGRQYDYWGQGTQVTVSS
notes: Llama sdAb isolated from a whole cancer cell immunized library; also called 2A3 antibody; 2A3 anti-CEACAM6 antibody
For orientation: Kd means the free concentration of one partner at which half of the binding sites on the other are occupied at equilibrium, for simple one-to-one binding. Read a high Kd as a looser complex. The molecule B1 yielded a Kd of 5 nM.
